B1: recombinant human ATG12 (autophagy-related protein 12) (natural protein, UniProt O94817 1-140, looked up)
chain: MAEEPQSVLQLPTSIAAGGEGLTDVSPETTTPEPPSSAAVSPGTEEPAGDTKKKIDILLKAVGDTPIMKTKKWAVERTRTIQGLIDFIKKFLKLVASEQLFIYVNQSFAPSPDQEVGTLYECFGSDGKLVLHYCKSQAWG
notes: source: bought: BIOZOL

Columns and labels:
Conditions in all cases: both partners purified
[1] = molecular target: recombinant human LC3B (microtubule-associated protein 1 light-chain 3) (human, UniProt Q9GZQ8 1-120); experiment: ELISA; competition: recombinant LC3B, ATG12 or Aβ1-42 coated; L1Fc in solution alone or with a 20-fold molar excess of Aβ, L1-LIR peptide or mutated LIR peptide as competitor, 1 h at room temperature; detected with HRP-coupled anti-Fc antibody
[2] = molecular target: B1; experiment: as above
[3] = molecular target: T1, L1Fc, extracellular domain of mouse L1 fused to Fc from human IgG (mouse, UniProt P11627 35-1112); experiment: ELISA; recombinant human ATG12 (10 µg/mL) coated on 384-well plates; different concentrations (1–200 µg/mL) of L1Fc or CHL1Fc in solution, 1 h at room temperature; detected with HRP-coupled anti-Fc antibody
T1 construct: The methods say that the Fc fusion presents dimers, not monomeric domains; also called extracellular domain of L1; soluble L1Fc chimera; source: recombinant, production and purification described in [111]
T1 sequence (P11627 35-1112): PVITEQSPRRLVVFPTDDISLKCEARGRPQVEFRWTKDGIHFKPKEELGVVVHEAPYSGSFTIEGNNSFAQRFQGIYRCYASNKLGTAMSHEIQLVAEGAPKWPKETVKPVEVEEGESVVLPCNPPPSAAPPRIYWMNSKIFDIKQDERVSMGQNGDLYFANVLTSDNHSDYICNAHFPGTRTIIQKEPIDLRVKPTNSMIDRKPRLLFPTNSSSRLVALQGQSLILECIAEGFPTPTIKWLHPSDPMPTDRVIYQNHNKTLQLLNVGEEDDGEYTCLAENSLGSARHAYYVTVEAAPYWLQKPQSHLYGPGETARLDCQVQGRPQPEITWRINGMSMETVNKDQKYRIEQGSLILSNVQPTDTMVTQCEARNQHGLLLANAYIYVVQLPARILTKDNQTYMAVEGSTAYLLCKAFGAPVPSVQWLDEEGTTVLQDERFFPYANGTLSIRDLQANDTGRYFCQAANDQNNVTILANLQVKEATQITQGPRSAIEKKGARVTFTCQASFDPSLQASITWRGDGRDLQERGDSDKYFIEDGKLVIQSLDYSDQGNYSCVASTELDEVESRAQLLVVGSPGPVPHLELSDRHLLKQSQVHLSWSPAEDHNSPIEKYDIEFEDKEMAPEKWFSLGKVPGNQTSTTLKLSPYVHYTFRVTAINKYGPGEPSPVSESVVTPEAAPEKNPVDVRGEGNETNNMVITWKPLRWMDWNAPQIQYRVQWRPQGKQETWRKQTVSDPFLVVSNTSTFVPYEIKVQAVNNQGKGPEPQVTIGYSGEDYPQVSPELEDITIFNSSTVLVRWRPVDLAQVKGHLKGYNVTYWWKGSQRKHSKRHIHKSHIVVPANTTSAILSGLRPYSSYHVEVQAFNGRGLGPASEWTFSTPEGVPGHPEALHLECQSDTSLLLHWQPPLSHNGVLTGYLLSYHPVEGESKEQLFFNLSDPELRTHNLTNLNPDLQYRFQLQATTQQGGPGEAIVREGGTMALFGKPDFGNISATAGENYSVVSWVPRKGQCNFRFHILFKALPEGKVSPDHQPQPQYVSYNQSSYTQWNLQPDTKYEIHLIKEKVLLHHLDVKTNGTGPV

binding result [1] | binding result [2] | binding result [3] | Binder
binds | binds |  | SHNGVLTGYLLSYHPVEGESKEQ (23-amino-acid peptide of mouse L1 with the LIR motif 952LSYHPV957 of the fourth fibronectin type III homologous repeat; source: synthetic peptide, bought: Schafer-N) [mouse L1-LIR peptide containing the extracellular LC3-interacting region (LIR) motif of L1]
 |  | binds | B1
